Changes are numbered by the printed parent chain. Values belong to the binder of their own block, whether it stands above or below them.
Assays:
Human CD27-HisFc [1] = molecular target: T1, Human CD27-HisFc (human, UniProt P26842 21-192); assay: BLI (Octet RED96), CD27-HisFc captured on AHC sensor, Fab in solution, 1:1 Langmuir fit
T1 construct: Bought reagent; also called CD27-HisFc (Sino Biological #10039-H03H); human CD27-HisFc fusion protein; not shown: His tag and Fc
T1 sequence (looked up): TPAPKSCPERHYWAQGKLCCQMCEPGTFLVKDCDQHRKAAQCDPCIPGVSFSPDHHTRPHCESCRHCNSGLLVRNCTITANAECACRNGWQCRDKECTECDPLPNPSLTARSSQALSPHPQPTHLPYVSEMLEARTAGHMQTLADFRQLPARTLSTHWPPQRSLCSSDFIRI
From the text: The antibody Fab fragment of each unique sequence with addition of histidine tag at its C-terminus was overexpressed using E. coli expression system, and then purified by Ni-NTA affinity resin. […] The collected data was processed by Data Acquisition 7.1 software and fitted to a 1:1 Langmuir model curve. The antibody mAb077 with the best binding capacity was obtained by screening for further analysis and development experiments.

[2] = molecular target: T2, human CD27-his antigen (Yiqiao Shenzhou #10039-H08H) (human, UniProt P26842 21-192); assay: SPR (Biacore T200), antibody captured on protein A chip, CD27-his as analyte, 1:1 Langmuir fit
T2 construct: Bought reagent; also called huCD27-his (Sino Biological); not shown: His tag
T2 sequence (looked up): T1 sequence (looked up)
From the text: The protein A biosensor chip was used to affinity capture the antibody molecule to be tested, and then the human CD27-his antigen (Yiqiao Shenzhou #10039-H08H) of various gradient concentrations was flowed on the surface of the chip, and the reaction signal was detected in real time with the Biacore T200 instrument to obtain the association and dissociation curve. After the dissociation of each experimental cycle was completed, the biosensor chip was washed and regenerated with glycine-hydrochloric acid regeneration solution (pH 1.5). BIAevaluation version 4.1 and GE software were used to fit the data with a (1:1) Langmuir model, the affinity values were obtained as shown in the table below. The affinity of the mutant molecule 077N74T is slightly higher than that of the original mAb077 molecule but there is no significant difference.

Murine CD27-HisFc = molecular target: T3, Murine CD27-HisFc (murine, UniProt P41272 24-182, limits assumed); assay: BLI (Octet RED96), 1:1 Langmuir fit; format for IgG not described
T3 construct: not shown: His tag and Fc
T3 sequence (looked up): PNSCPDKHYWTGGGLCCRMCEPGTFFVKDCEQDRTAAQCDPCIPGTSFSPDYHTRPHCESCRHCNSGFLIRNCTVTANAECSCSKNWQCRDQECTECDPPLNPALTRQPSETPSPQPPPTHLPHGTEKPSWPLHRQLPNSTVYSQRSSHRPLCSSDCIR

Macaca CD27-Fc = Macaca CD27-Fc (Macaca); assay: as above
Human CD27-HisFc [3] = molecular target: T1, Human CD27-HisFc; assay: as above
Human CD27-His = molecular target: T4, Human CD27-His (human, UniProt P26842 21-192); assay: as above
T4 construct: also called CD27-His (Sino Biological #10039-H08B1); not shown: His tag
T4 sequence (looked up): T1 sequence (looked up)

B2: 077N74T (antibody, V domains shown)
VH: EVQLVESGGGLVQPGGSLRLSCAASGFTFSGYGIHWVRQAPGKGLEWIGWINPNRGSTKYAQKFQGRVTISRDTSKNTLYLQLNSLRAEDTAVYYCARDPGYTWYFDVWGQGTLVTVSS
VL: DIQLTQSPSSLSASVGDRVTITCRASQDISSDLAWYQQKPGKAPKLLIYAASTLQSGVPSRFSGSGSGTDFTLTISSLQPEDFATYYCQQRDAWPPTFGQGTKVEIKR
notes: The light chain is the same as in mAb077; also called mutant molecule 077N74T; 077N74T antibody
Kd [2]: 0.261 nM
koff [2]: 6.75e-05 s⁻¹
kon [2]: 259000 M⁻¹ s⁻¹

B4: 1F5-IgG (antibody, V domains shown)
VH: QVQLVESGGGVVQPGRSLRLSCAASGFTFSSYDMHWVRQAPGKGLEWVAVIWYDGSNKYYADSVKGRFTISRDNSKNTLYLQMNSLRAEDTAVYYCARGSGNWGFFDYWGQGTLVTVSS
VL: DIQMTQSPSSLSASVGDRVTITCRASQGISRWLAWYQQKPEKAPKSLIYAASSLQSGVPSRFSGSGSGTDFTLTISSLQPEDFATYYCQQYNTYPRTFGQGTKVEIK
Kd (Human CD27-His): 1.39 nM
koff (Human CD27-His): 9.15e-05 s⁻¹
kon (Human CD27-His): 65800 M⁻¹ s⁻¹
Kd (Macaca CD27-Fc): 2.13 nM
koff (Macaca CD27-Fc): 0.000243 s⁻¹
kon (Macaca CD27-Fc): 114000 M⁻¹ s⁻¹

Results, then the binder that gave them:

Kd (Human CD27-HisFc [1]): 4.08 nM
koff (Human CD27-HisFc [1]): 0.00121 s⁻¹
kon (Human CD27-HisFc [1]): 296000 M⁻¹ s⁻¹
B1: mAb077-Fab (Fab, V domains shown)
VH: B2 VH with T74N
VL: DIQLTQSPSSLSASVGDRVTITCRASQDISSDLAWYQQKPGKAPKLLIYAASTLQSGVPSRFSGSGSGTDFTLTISSLQPEDFATYYCQQRDAWPPTFGQGTKVEIK
notes: only the variable domains are tied to the Fab; also called mAb077 Fab fragment; mAb77

Kd [2]: 0.335 nM
koff [2]: 8.34e-05 s⁻¹
kon [2]: 249000 M⁻¹ s⁻¹
Kd (Murine CD27-HisFc): 0.0304 nM
koff (Murine CD27-HisFc): 1.33e-05 s⁻¹
kon (Murine CD27-HisFc): 438000 M⁻¹ s⁻¹
Kd (Macaca CD27-Fc): 0.562 nM
koff (Macaca CD27-Fc): 4.26e-05 s⁻¹
kon (Macaca CD27-Fc): 75800 M⁻¹ s⁻¹
Kd (Human CD27-HisFc [3]): 0.137 nM
koff (Human CD27-HisFc [3]): 2.17e-05 s⁻¹
kon (Human CD27-HisFc [3]): 158000 M⁻¹ s⁻¹
B3: mAb077-IgG (antibody, V domains shown)
VH: B2 VH with T74N
VL: B2 VL
notes: also called mAb77
